Measurements reported in patent US11491212.

Legend:
[1] = molecular target: Factor X (FX), P00742
[2] = molecular target: Factor X, P00742
Chain of Factor X, P00742 (P00742 whole entry, looked up): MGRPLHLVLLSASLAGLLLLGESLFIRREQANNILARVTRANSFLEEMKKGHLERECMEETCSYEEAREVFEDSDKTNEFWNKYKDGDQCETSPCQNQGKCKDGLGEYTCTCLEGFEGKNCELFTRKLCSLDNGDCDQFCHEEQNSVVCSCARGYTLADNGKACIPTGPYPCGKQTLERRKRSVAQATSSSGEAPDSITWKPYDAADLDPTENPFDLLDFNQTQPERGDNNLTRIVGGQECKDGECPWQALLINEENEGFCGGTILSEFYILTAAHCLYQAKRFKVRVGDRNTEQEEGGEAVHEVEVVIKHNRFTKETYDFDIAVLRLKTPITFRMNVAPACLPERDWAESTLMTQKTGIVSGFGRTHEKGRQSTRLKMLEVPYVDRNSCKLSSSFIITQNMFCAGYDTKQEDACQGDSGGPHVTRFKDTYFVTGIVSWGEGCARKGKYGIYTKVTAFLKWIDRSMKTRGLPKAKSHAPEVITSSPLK

Chain of Factor X (FX), P00742 (P00742 whole entry, looked up): as above

Row | Protein | kcat (s^-1), activation of FX by FIXa in the Xase complex [1] [s⁻¹] | % of WT kcat/KM [2] [%] | kcat/KM [2] [M⁻¹ s⁻¹] | % of WT kcat/KM (against Catalyst Biosciences WT FIXa) [1] [%] | KM [1] [µM] | kcat/KM for activation of FX by FIXa in the Xase complex (FVIIIa, PC/PS vesicles, Ca2+), fluorogenic Spectrafluor FXa read-out [1] [M⁻¹ s⁻¹] | kcat [2] [s⁻¹]
1 | FIXa Y155F/K247N/N249S/R403E/E410N (protein) chain 1: not shown chain 2: not shown | 2.7 | 53 | 2.4e+07 | – | – | – | –
2 | FIXa K228N/K247N/N249S/R318Y/R338E/T343R/R403E (protein) chain 1: not shown chain 2: not shown | 10.9 | 636 | 2.9e+08 | – | – | – | –
3 | FIXa-Y155F/K228N/R318Y/R338E/R403E/E410N (protein) chain 1: not shown chain 2: not shown | – | – | – | 356 | 0.0408 | 1.6e+08 | 6.7
4 | FIXa K228N/R318Y/R338E/T343R/R403E/E410N (protein) chain 1: not shown chain 2: not shown | 10.5 | 593 | 2.7e+08 | – | – | – | –
5 | FIXa K228N/K247N/N249S/R318Y/R338E/T343R/E410N (protein) chain 1: not shown chain 2: not shown | 4.7 | 278 | 1.3e+08 | – | – | – | –
6 | FIXa K228N/K247N/N249S/R318Y/T343R/R403E/E410N (protein) chain 1: not shown chain 2: not shown | 8.1 | 153 | 7.1e+07 | – | – | – | –
7 | FIXa R318Y/T343R/E410N (protein) chain 1: not shown chain 2: not shown | 3.2 | 135 | 6.2e+07 | – | – | – | –
8 | FIXa Y155F/R338E/T343R/E410N (protein) chain 1: not shown chain 2: not shown | 6 | 761 | 3.5e+08 | – | – | – | –
9 | FIXa Y155F/R318Y/T343R/E410N (protein) chain 1: not shown chain 2: not shown | 5 | 326 | 1.5e+08 | – | – | – | –
